Results on three molecules are retold here after patent US20240410900A1 (Hoffmann-La Roche, published 2024).

Test [1] concerns the target T1, anti-VEGF/ANG2 antibody (wild-type IgG1 subclass) (UniProt P01857-1 1-330 = IgG part).
T1 construct: also called sample 5; antibody 5
Put plainly: ELISA assay B, tracer M1.7.10-Dig, target 25 ng/mL. As for the experimental part: (§1) Biotinylated anti-PG Fc-region antibody or biotinylated anti-AAA Fc-region antibody, respectively, was bound to the wells of a streptavidin-coated multi-well plate (SA-MTP) to produce a capture plate. Excess of unbound antibody was removed by washing. Sample/standard antibodies spiked in human and cynomolgus monkey serum (10% final concentration) was added to wells of the SA-MTP multi-well plate coated with the capture plate and incubated for 1 hour at room temperature. After washing, the wells were incubated with digoxygenylated anti-human kappa antibody M1.7.10 (see e.g. WO 2011/048043, incorporated herein by reference). After washing the bound digoxygenylated anti-human kappa antibody complex was incubated with a horseradish peroxidase (HRP) labelled anti-digoxygenin antibody. After another washing step, an ABTS solution was added to the wells and incubated. The product of the color reaction was measured by Elisa reader at 405 nm wavelength (reference wavelength: 490 nm). Absorbance values of each sample or standard were determined in triplicates.

Test [2] has as its target T2, anti-P-Selectin antibody (IgG4 subclass with mutations S228P/L235E).
T2 construct: Positions are EU numbers; also called sample 4; antibody 4
Kind of test: ELISA assay B, tracer M1.7.10-Dig, target 25 ng/mL. As for the experimental part: as §1

Test [3] concerns the target T3, anti-VEGF/ANG2 antibody (IgG1 subclass with mutations P329G/L234A/L235A).
T3 construct: Positions are EU numbers; also called sample 2; antibody 2
Kind of test: ELISA assay B, tracer M1.7.10-Dig, target 25 ng/mL. As to the method:
as §1

Test [4] addresses T4, anti-IGF-1R antibody (IgG1 subclass with mutations I253A/H310A/H435A).
T4 construct: Positions are EU numbers; also called sample 3; antibody 3
Put plainly: ELISA assay B, tracer M1.7.10-Dig, target 25 ng/mL. As to the method:
as §1

The target of test [5] is T5, anti-VEGF/ANG2 antibody (IgG1 subclass with mutations P329G/L234A/L235A/I253A/H310A/H435A).
T5 construct: Format of the bispecific antibody not described; Positions are EU numbers, not positions on the UniProt entry; also called sample 1; antibody 1
Put plainly: ELISA assay B, tracer M1.7.10-Dig, target 25 ng/mL. As for the experimental part: as §1

For test [6], the target named is T1, anti-VEGF/ANG2 antibody (wild-type IgG1 …). Kind of test: ELISA assay C, tracer FcγRI-Dig, target 100 ng/mL.
Test [7] deals with T2, anti-P-Selectin antibody (IgG4 subclass …). Kind of test: ELISA assay C, tracer FcγRI-Dig, target 100 ng/mL.
Test [8] addresses T3, anti-VEGF/ANG2 antibody (IgG1 subclass …). Kind of test: ELISA assay C, tracer FcγRI-Dig, target 100 ng/mL.
Test [9] addresses T4, anti-IGF-1R antibody (IgG1 subclass …). Put plainly: ELISA assay C, tracer FcγRI-Dig, target 100 ng/mL.
Test [10] concerns the target T5, anti-VEGF/ANG2 antibody (IgG1 subclass …). Kind of test: ELISA assay C, tracer FcγRI-Dig, target 100 ng/mL.
For test [11], the target named is T1, anti-VEGF/ANG2 antibody (wild-type IgG1 …). Put plainly: ELISA assay C, tracer FcγRI-Dig, target 3 ng/mL.
In test [12] the target is T2, anti-P-Selectin antibody (IgG4 subclass …). Kind of test: ELISA assay C, tracer FcγRI-Dig, target 3 ng/mL.
Test [13] concerns the target T3, anti-VEGF/ANG2 antibody (IgG1 subclass …). Kind of test: ELISA assay C, tracer FcγRI-Dig, target 3 ng/mL.
Test [14] has as its target T4, anti-IGF-1R antibody (IgG1 subclass …). Kind of test: ELISA assay C, tracer FcγRI-Dig, target 3 ng/mL.
The target of test [15] is T5, anti-VEGF/ANG2 antibody (IgG1 subclass …). Kind of test: ELISA assay C, tracer FcγRI-Dig, target 3 ng/mL.
Test [16] deals with T1, anti-VEGF/ANG2 antibody (wild-type IgG1 …). Put plainly: ELISA assay B, tracer M1.7.10-Dig, target 3 ng/mL. As for the experimental part: as §1
Test [17] deals with T2, anti-P-Selectin antibody (IgG4 subclass …). Put plainly: ELISA assay B, tracer M1.7.10-Dig, target 3 ng/mL. As to the method:
as §1

Test [18] has as its target T3, anti-VEGF/ANG2 antibody (IgG1 subclass …). Kind of test: ELISA assay B, tracer M1.7.10-Dig, target 3 ng/mL. As to the method: as §1
In test [19] the target is T4, anti-IGF-1R antibody (IgG1 subclass …). Put plainly: ELISA assay B, tracer M1.7.10-Dig, target 3 ng/mL. As to the method:
as §1

In test [20] the target is T1, anti-VEGF/ANG2 antibody (wild-type IgG1 …). Kind of test: ELISA assay C, tracer FcγRI-Dig, target 6 ng/mL.
Test [21] addresses T2, anti-P-Selectin antibody (IgG4 subclass …). Put plainly: ELISA assay C, tracer FcγRI-Dig, target 6 ng/mL.
Test [22] addresses T3, anti-VEGF/ANG2 antibody (IgG1 subclass …). Put plainly: ELISA assay C, tracer FcγRI-Dig, target 6 ng/mL.
The target of test [23] is T4, anti-IGF-1R antibody (IgG1 subclass …). Kind of test: ELISA assay C, tracer FcγRI-Dig, target 6 ng/mL.
For test [24], the target named is T5, anti-VEGF/ANG2 antibody (IgG1 subclass …). Put plainly: ELISA assay C, tracer FcγRI-Dig, target 6 ng/mL.

Positions count from the first letter of the chain named.

B1: anti-AAA variant Fc-region antibody M1.6.22 (antibody, V domains shown)
VH: EVQLVESGGDLVKPGGSLKLSCAASGFTFSSYGMSWVRQTPDKRLEWVATISSGGSYIYYPDSVKGRFTISRDNAKNTLYLQMSSLKSEDTAMYYCARLGMITTGYAMDYWGQGTSVTVSS
VL: DVLMTQTPLSLPVSLGDQASISCRSSQTIVHSTGHTYLEWFLQKPGQSPKLLIYKVSNRFSGVPDRFSGSGSGTDFTLKISRVEAEDLGVYYCFQGSHVPYTFGGGTKLEIK
notes: Murine variable domains; also called M1.6.22-Bi
For the molecule B1, the “signal [OD405 nm]” value worked out at 0.047 OD405 nm in test [1]; 0.048 OD405 nm in test [2]; 0.092 OD405 nm in [3]; 2.89 OD405 nm in test [4]; 0.044 OD405 nm in [5]; 0.076 OD405 nm in [6]. The “signal [OD405 nm]” value was found to be 0.069 OD405 nm in test [7]; 0.076 OD405 nm in [8]; 2.1 OD405 nm in test [9]; 0.079 OD405 nm in [10]; 0.069 OD405 nm in test [11]; 0.05 OD405 nm in [12]. The “signal [OD405 nm]” value in test [13] was found to be 0.068 OD405 nm; in test [14] it was 0.083 OD405 nm; in test [15], 0.066 OD405 nm; in test [16], 0.037 OD405 nm; in [17] it was 0.039 OD405 nm; in test [18], 0.044 OD405 nm. In addition, the “signal [OD405 nm]” value came to 2.26 OD405 nm in test [19]; 0.064 OD405 nm in [20]; 0.051 OD405 nm in test [21]; 0.06 OD405 nm in test [22]; 0.104 OD405 nm in [23]; 0.06 OD405 nm in test [24].

B2: anti-PG variant Fc-region antibody M1.3.17 (antibody, V domains shown)
VH: EVKLLESGGGLVQPGGSLKLSCAASGIDFRRYWMNWVRQAPGKGLEWIGEIDPDSSTINYTPSLKDKFIISRDNAKNTMYLQMRKVRSEDTALYYCARPYDYGAWFAYWGQGTLVTVSA
VL: QAVVTQESALTTSPGETVTLTCRSTTGAVTTSNYANWVQEKPDHLFTGLIGGTNKRAPGVPARFSGSLIGDKAALTITGAQTEDEAIYFCALWYSDHWVFGGGTKLTVL
notes: Monomeric, bivalent full-length antibody with murine variable domains; Biotinylated when used as capture antibody; also called anti-PG antibody clone 1.3.17; M1.3.17-Bi
Consider B2, for which the “signal [OD405 nm]” value stood at 0.043 OD405 nm in test [1]; 0.047 OD405 nm in test [2]; 0.213 OD405 nm in [3]; 0.046 OD405 nm in test [4]; 0.035 OD405 nm in [5]; 1.18 OD405 nm in [6]. The “signal [OD405 nm]” value in test [7] is 1.17 OD405 nm; in [8] it was 1.22 OD405 nm; in [9], 1.2 OD405 nm; in [10] it was 1.19 OD405 nm; in [11], 1.19 OD405 nm; in test [12] it was 1.19 OD405 nm. In addition, the “signal [OD405 nm]” value in test [13] was determined as 1.22 OD405 nm; in test [14], 1.21 OD405 nm; in test [15], 1.16 OD405 nm; in test [16], 0.044 OD405 nm; in test [17] it was 0.05 OD405 nm; in test [18], 0.165 OD405 nm. Besides, the “signal [OD405 nm]” value in [19] stood at 0.047 OD405 nm; in test [20], 1.17 OD405 nm; in [21], 1.18 OD405 nm; in test [22] it was 1.22 OD405 nm; in [23] it was 1.21 OD405 nm; in test [24], 1.17 OD405 nm.

B3: anti-PG variant Fc-region antibody M1.7.24 (monomeric, bivalent) (antibody, V domains shown)
VH: B2 VH with I27F, R30S, D52T, M79L, R84I, A97V, Y108S
VL: B2 VL with T25S, D96N
notes: Full-length Y-shaped antibody with murine variable domains; Biotinylated when used as capture antibody; also called anti-PG antibody clone 1.7.24; M1.7.24-Bi
Take B3: the “signal [OD405 nm]” value came to 0.041 OD405 nm in test [1]; 0.04 OD405 nm in test [2]; 3.16 OD405 nm in test [3]; 0.048 OD405 nm in test [4]; 0.047 OD405 nm in test [5]; 0.073 OD405 nm in test [6]. For the same molecule, the “signal [OD405 nm]” value in [7] came out at 0.08 OD405 nm; in test [8], 0.082 OD405 nm; in test [9], 0.11 OD405 nm; in test [10], 0.05 OD405 nm; in test [11], 0.053 OD405 nm; in test [12], 0.053 OD405 nm. The “signal [OD405 nm]” value in test [13] came to 0.057 OD405 nm; in test [14] it was 0.077 OD405 nm; in test [15], 0.094 OD405 nm; in test [16], 0.033 OD405 nm; in test [17], 0.031 OD405 nm; in test [18], 2.51 OD405 nm. Moreover, the “signal [OD405 nm]” value in test [19] amounted to 0.046 OD405 nm; in [20], 0.057 OD405 nm; in [21], 0.053 OD405 nm; in [22], 0.06 OD405 nm; in test [23], 0.069 OD405 nm; in test [24], 0.079 OD405 nm.
